Experimental data: article PMC7251212, “Molecular Insight into TdfH-Mediated Zinc Piracy from Human Calprotectin by Neisseria gonorrhoeae” (mBio, 2020)

Columns and labels:
[1] = molecular target: T1, recombinant TdfH (Neisseria gonorrhoeae TonB-dependent transporter, NGO0952) (Neisseria gonorrhoeae, UniProt A0ACH0F8A9 1-922); assay: ITC; Nano ITC, 25°C, 1x PBS with 0.05% DDM; TdfH (300 μl, 20 μM) in the cell, CP sample (200 μM) in 20 injections of 2.5 μl; fitted with NanoAnalyze to a two-state (multisite) model, TKO to a single-site model; conditions: both partners purified
T1 construct: TdfH, Neisseria gonorrhoeae, locus NGO0952; full-length tdfH gene, codon-optimised for E. coli; The tag of pHIS2 is not described: the N-terminal 10x His tag and TEV site are told of the modified pET20b vector, which was not the source of the protein used; also called recombinantly produced TdfH; purified TdfH; not shown: His tag (from the Ni-NTA purification)
T1 sequence: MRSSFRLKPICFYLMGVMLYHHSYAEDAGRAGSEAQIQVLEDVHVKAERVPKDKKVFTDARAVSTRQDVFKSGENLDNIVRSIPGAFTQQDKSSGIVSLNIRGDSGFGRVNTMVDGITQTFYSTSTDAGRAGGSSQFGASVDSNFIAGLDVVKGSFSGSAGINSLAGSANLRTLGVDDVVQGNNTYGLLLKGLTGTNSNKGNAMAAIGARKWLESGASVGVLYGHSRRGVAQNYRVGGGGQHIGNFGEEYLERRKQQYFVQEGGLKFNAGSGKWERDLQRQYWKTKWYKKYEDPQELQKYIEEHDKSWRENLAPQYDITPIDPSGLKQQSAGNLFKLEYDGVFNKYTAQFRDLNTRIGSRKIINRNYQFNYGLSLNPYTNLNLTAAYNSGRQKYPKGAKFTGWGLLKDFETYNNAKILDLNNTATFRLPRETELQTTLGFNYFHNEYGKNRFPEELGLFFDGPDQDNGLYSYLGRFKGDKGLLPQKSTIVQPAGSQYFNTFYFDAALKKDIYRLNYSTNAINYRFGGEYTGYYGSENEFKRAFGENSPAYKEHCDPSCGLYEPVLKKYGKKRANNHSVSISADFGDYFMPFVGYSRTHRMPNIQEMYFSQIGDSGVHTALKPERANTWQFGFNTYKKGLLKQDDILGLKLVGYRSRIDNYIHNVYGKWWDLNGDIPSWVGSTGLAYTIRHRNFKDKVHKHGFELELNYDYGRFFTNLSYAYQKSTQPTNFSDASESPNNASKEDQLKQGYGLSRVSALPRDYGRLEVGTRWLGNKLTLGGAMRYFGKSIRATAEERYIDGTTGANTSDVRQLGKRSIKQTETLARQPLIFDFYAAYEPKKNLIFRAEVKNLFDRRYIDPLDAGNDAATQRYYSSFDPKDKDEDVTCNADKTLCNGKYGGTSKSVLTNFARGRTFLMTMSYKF

TdfH = molecular target: T2, TdfH (Neisseria gonorrhoeae, UniProt A0ACH0F8A9 1-922); assay: ITC; CP sample (200 uM) injected into TdfH (300 ul at 20 uM) in the cell, 20 injections of 2.5 ul every 300 s, 25 C, 1x PBS with 0.05% DDM; fitted with NanoAnalyze (multi-site model; independent model for TKO); conditions: both partners purified
T2 construct: TdfH, TonB-dependent transporter of Neisseria gonorrhoeae, locus NGO0952; full-length tdfH gene, codon optimised for E. coli; In 0.05% DDM; also called recombinant TdfH; NGO0952

B1: total knockout human calprotectin (both Zn binding sites mutated) (complex)
chain 1: MLTELEKALNSIIDVYNKYSLIKGNFNAVYRDDLKKLLETECPQYIRKKGADVWFKELDINTDGAVNFQEFLILVIKMGVAANKKSNEESHKE
chain 2: MTCKMSQLERNIETIINTFNQYSVKLGHPSTLNQGEFKELVRKDLQNFLKKENKNEKVIEHIMEDLDTNADKQLSFEEFIMLMARLTWASNEKMNEGDEGPGHHHKPGLGEGTP
modifications: Positions are not printed here. They follow the cited calprotectin site-knockout constructs and fit the printed counts (4 His-Asn in site 1; 3 His-Asn plus Asp-Ser in site 2). Cys kept as wild type …
- Kd [1]: 13 µM

B2: total knockout hCP (complex)
chain 1: MLTELEKALNSIIDVYNKYSLIKGNFNAVYRDDLKKLLETECPQYIRKKGADVWFKELDINTDGAVNFQEFLILVIKMGVAANKKSNEESHKE
chain 2: MTCKMSQLERNIETIINTFNQYSVKLGHPSTLNQGEFKELVRKDLQNFLKKENKNEKVIEHIMEDLDTNADKQLSFEEFIMLMARLTWASNEKMNEGDEGPGHHHKPGLGEGTP
modifications: Same construct as m7. Positions come from the cited constructs and are not printed here.
- stoichiometry N (TdfH): 0.67 ± 0.12
